Reference: patent US20190127468A1
Several values for one entry are separate records, joined by “and”; a condition that tells them apart may be missing. Equal values may be shown once.

Assays:
[1] = target: CTLA-4Fc mutant M11 (AA103-106, YLGI>fcGm) (human); experiment: ELISA, plate-coated CTLA-4Fc protein, biotinylated B7-1 Ig at 1 ug/ml, HRP-streptavidin
[2] = target: CTLA-4Fc mutant M11 (AA103-106, YLGI>fcGm) (human); experiment: ELISA, plate-coated CTLA-4Fc protein, biotinylated B7-1 Ig at 10 ng/ml, HRP-streptavidin
[3] = target: CTLA-4Fc mutant M11 (AA103-106, YLGI>fcGm) (human); experiment: ELISA, plate-coated CTLA-4Fc protein, biotinylated B7-1 Ig at 0 (blank), HRP-streptavidin
[4] = target: CTLA-4Fc mutant M11 (AA103-106, YLGI>fcGm) (human); experiment: ELISA, plate-coated CTLA-4Fc protein, biotinylated B7-1 Ig at 100 ng/ml, HRP-streptavidin
[5] = target: mouse CTLA4 in cells of Ctla4 m/m (WT) mice (mouse) (UniProt P09793); experiment: cell-based or functional assay
[6] = target: Control IgG1-Fc (human) [IgG part: P01857]; experiment: ELISA on coated target; binder 10 ng/ml
[7] = target: Control IgG1-Fc (human) [IgG part: P01857]; experiment: ELISA on coated target; binder 100 ng/ml
[8] = target: Control IgG1-Fc (human) [IgG part: P01857]; experiment: ELISA on coated target; binder 1000 ng/ml
[9] = target: Control IgG1-Fc (human) [IgG part: P01857]; experiment: ELISA on coated target; binder 0 (background)
[10] = target: human CTLA4 in cells of Ctla4 h/h knock-in mice (human) (UniProt P16410); experiment: flow cytometry, intracellular staining of CTLA4 in spleen cells of Ctla4 h/h mice, gated on CD3+CD4+
human CTLA4 in cells of Ctla4 h/h knock-in mice (human), sequence (P16410 36-223): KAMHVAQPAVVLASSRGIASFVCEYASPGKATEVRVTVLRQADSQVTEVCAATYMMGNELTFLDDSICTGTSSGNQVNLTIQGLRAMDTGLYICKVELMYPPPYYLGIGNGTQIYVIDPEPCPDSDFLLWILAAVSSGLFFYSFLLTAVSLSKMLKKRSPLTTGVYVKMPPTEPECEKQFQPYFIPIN

[11] = target: mouse CTLA4 in cells of Ctla4 m/m (WT) mice (mouse) (UniProt P09793); experiment: flow cytometry, intracellular staining of CTLA4 in spleen cells of Ctla4 m/m mice, gated on CD3+CD4+
[12] = target: mouse CTLA4-Fc fusion protein (mouse) (UniProt P09793); experiment: blocking ELISA: plate B7-1, biotinylated mouse CTLA4-Fc with the antibody, HRP-streptavidin; blocked ligand B7-1
[13] = target: mouse CTLA4-Fc fusion protein (mouse) (UniProt P09793); experiment: blocking ELISA: plate B7-2, biotinylated mouse CTLA4-Fc with the antibody, HRP-streptavidin; blocked ligand B7-2

CTLA-4Fc mutant M11 (AA103-106, YLGI>fcGm) (human), sequence (chain, as listed by the source mutant limits assumed): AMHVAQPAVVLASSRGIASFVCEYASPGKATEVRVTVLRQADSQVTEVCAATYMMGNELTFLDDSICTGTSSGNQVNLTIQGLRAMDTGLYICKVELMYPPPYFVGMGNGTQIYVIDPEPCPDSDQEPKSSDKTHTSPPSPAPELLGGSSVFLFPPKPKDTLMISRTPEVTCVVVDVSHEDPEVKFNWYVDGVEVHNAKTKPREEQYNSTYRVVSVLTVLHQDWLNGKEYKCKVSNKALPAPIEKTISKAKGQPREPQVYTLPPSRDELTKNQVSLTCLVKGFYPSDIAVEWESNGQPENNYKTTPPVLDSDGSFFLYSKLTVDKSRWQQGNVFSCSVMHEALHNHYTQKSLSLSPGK
anti-mouse CTLA4 mAb 9D9 (antibody), sequence (light): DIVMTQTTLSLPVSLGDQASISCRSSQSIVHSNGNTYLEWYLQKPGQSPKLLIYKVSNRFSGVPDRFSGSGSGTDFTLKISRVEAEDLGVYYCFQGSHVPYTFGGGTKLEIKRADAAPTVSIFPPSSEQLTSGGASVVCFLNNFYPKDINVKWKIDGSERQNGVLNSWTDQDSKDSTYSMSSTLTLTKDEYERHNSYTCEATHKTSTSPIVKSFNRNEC
anti-mouse CTLA4 mAb 9D9 (antibody), sequence (heavy): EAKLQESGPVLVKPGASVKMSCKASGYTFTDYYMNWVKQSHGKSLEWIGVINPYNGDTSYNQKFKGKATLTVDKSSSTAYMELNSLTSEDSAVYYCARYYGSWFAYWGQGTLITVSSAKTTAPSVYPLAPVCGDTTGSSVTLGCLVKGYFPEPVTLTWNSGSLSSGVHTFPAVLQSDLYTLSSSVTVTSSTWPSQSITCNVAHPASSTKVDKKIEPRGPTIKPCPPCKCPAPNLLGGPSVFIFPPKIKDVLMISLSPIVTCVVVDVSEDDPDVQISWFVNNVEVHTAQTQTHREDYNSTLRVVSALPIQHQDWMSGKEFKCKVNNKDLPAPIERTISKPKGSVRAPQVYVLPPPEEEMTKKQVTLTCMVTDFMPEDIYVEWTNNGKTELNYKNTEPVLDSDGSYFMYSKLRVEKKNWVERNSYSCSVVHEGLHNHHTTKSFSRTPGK

Substance: human B7-1 Fc fusion protein (from UniProt P33681 35-242)
- OD450 [1]: 3.05 OD450 and 3.16 OD450
- OD450 [2]: 0.22 OD450 and 0.217 OD450
- OD450 [3]: 0.174 OD450 and 0.163 OD450
- OD450 [4]: 0.884 OD450 and 1.04 OD450

Substance: anti-mouse CTLA4 mAb 9D9 (antibody)
- B7-1 level on CD11c hi DC of WT mice 24 h after 500 µg antibody [5]: 15%

Substance: chimeric L3D10 antibody
- OD450 [6]: 0.201 OD and 0.182 OD
- OD450 [7]: 0.315 OD and 0.326 OD
- OD450 [8]: 1.39 OD and 1.48 OD
- OD450 [9]: 0.198 OD and 0.184 OD

Substance: anti-mouse CTLA4 mAb 4F10 (antibody)
- number over the gate (FoxP3-positive, 4F10-stained) among CD3+CD4+ splenocytes [10]: 0.107
- number over the gate (FoxP3-positive, 4F10-stained) among CD3+CD4+ splenocytes [11]: 9.52
- IC50 (read off the curve) [12]: 1 µg/mL
- IC50 (read off the curve) [13]: 0.3 µg/mL
